# Measurements taken from US12383631B2, “Immune antigen specific IL-18 immunocytokines and uses thereof” (Bright Peak Therapeutics AG, priority 2022, dated 2025).
# T1: human IL-18 binding protein isoform a (IL-18BPa) (Homo sapiens, UniProt O95998)
# T1 sequence (O95998 31-194): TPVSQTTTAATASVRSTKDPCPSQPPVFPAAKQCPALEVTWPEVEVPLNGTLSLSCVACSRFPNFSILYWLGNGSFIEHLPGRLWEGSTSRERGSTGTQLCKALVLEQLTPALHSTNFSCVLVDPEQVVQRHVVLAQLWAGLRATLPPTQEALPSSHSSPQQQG
# B1: SEQ ID NO: 30: IL-18 polypeptide: E6K, V11I, C38A, K53A, T63A, C76A, C127A (protein)
# chain: YFGKLKSKLSIIRNLNDQVLFIDQGNRPLFEDMTDSDARDNAPRTIFIISMYADSQPRGMAVAISVKCEKISTLSAENKIISFKEMNPPDNIKDTKSDIIFFQRSVPGHDNKMQFESSSYEGYFLAAEKERDLFKLILKKEDELGDRSIMFTVQNED
# How the values were obtained:
# [1] = biological target: T1, human IL-18 binding protein isoform a (IL-18BPa); assay: Cellular IL-18 Binding protein resistance assay in NK-92 cells (Example 13); format: cell-based; conditions: NK92 cells, IL-18 analyte 1 nM final, IL-18BPa titrated, 1 ng/ml IL-12; read-out: IC50 IL-18BP-mediated inhibition of IFNγ secretion
# Method: The NK cell line NK-92 derived from a patient with lymphoma (ATCC, Cat #CRL-2407) was cultured in aMEM medium supplemented with 20% FCS-Glutamax, 25 μM B-mercaptoEthanol, and 100 IU/ml of recombinant Human Interleukin-2 (TL-2). On the day of experiment, cells were harvested and washed with aMEM medium without IL-2. After counting, cells were seeded at 100 000 cells/well in a 384 well titer plate and incubated at 37° C./5% CO2. Sixteen 2-fold serial dilutions of Fc fused human IL-18 binding protein isoform a (IL-18BPa; R&D systems, Cat #119-BP) were prepared in aMEM medium-1 ng/ml IL-12 containing 2 nM of each IL-18 variants and were added to the NK-92 cells. Final IL-18 analytes concentration was 1 nM and final IL-18BPa concentrations ranged from to 566 nM down to 17 pM.
# After 16-20 h incubation at 37° C./5% CO2, 5 μl of supernatant were carefully transferred to a 384 microwells OPTIplate (Perkin Elmer; Cat #6007270) and Interferon-gamma (IFNγ) levels measured using the Human IFNγ AlphaLISA Assay Kit (Perkin Elmer, Cat #AL217C). […] AlphaLisa signal was then measured on an Enspire plate reader (Perkin Elmer) using 680 and 615 nm as excitation and emission wavelengths respectively. Half maximal inhibitory concentration (IC50) was calculated based on a variable slope, four parameter analysis using GraphPad PRISM software.
# [2] = system: PD-1 positive (transduced) KG-1 cells; assay: IFN gamma secretion assay in PD-1 transduced KG-1 cells (Example 11); format: cell-based, human; conditions: ratio of EC50 in PD-1 positive and parental KG-1 cells
# Method: The KG-1 cell line was used to generate a PD-1 expressing cell line and furthermore, to measure IFNγ release upon incubation with TL-18 variants and corresponding TL-18 immunocytokines.
# PD-1 expressing cell line generation: Briefly, KG-1 cells were transduced using lentiviral particles carrying the human PD-1 gene (PDCD1 NM_005018; Origene, CAT #: RC210364L3V) at a MOI (Multiplicity of Infection) of 30. Spinfection was performed at 1260 g during 90 min at 37° C. in the presence of 5 μg/ml of Polybrene and 10 mM of HEPES in complete culture media (RPMI, 10% FBS, 1% L-Glutamine). […]
# IFNγ release was assessed in PD-1 positive (transduced) KG-1 cells, as well as in the parental PD-1 negative cells. […] The lowest concentration assessed was 0.05 fM. After incubation, IFNγ release was measured using the LEGENDplex custom human mix and match KIT (Biolegend LEGENDplex™ Human IFN-γ Capture Bead B5, 13×#740942, LEGENDplex™ P 1 Essential Immune Response Panel Detection Abs, #740931, LEGENDplex™ Buffer Set A #740368). […] Fluorescence measurements were done with a Quanteon Flow Cytometer from Acea Biosciences. For analysis, MFI values (median fluorescence intensity) were exported and plotted against concentrations used. The EC50 values (half maximal effective concentration) were calculated based on a variable slope and four parameter analysis using GraphPad PRISM software version 9.
molecule,measurement,setting,value
B1,IC50,[1],488 nM
same,PD-1^pos/PD-1^neg EC50 ratio,[2],1.336
